In article PMC7949053, “Natural variants modify Klebsiella pneumoniae carbapenemase (KPC) acyl–enzyme conformational dynamics to extend antibiotic resistance” (The Journal of Biological Chemistry, 2020):

Tests used:
[1] = system: CC(C)(O/N=C(\C(=O)N[C@@H]1C(=O)N2C(C(=O)[O-])=C(C[n+]3ccccc3)CS[C@H]12)c1csc(N)n1)C(=O)O; test: purified protein; conditions: 10 mM HEPES pH 7.5, 150 mM NaCl, 25 °C, standard error in parentheses
[2] = system: CO/N=C(\C(=O)N[C@@H]1C(=O)N2C(C(=O)O)=C(COC(C)=O)CS[C@H]12)c1csc(N)n1; test: purified protein; conditions: 10 mM HEPES pH 7.5, 150 mM NaCl, 25 °C, standard error in parentheses, n = 3

## KPC-2 (Klebsiella pneumoniae)
[1]
  Km: 530 (70) μM
  kcat: 1.9 s⁻¹
  kcat/Km: 3500 M⁻¹ s⁻¹
[2]
  Km: 200 (29) μM
  kcat: 76 s⁻¹
  kcat/Km: 380000 M⁻¹ s⁻¹
